Test results reported in patent US20220381793A1, “COMPOSITIONS AND METHODS FOR IDENTIFYING MHC-II BINDING PEPTIDES” (priority 2021, published 2022).

Target: “empty” DR4-LZ (DRA*01:01/DRB1*04:01 ectodomains with Jun/Fos leucine zippers, non-covalent heterodimer displayed on yeast through Aga2p) (human)

Substance “S862-888 (printed “5862-888”) (from UniProt P0DTC2 862-878) (peptide)” has a % competition of 75%.
